# Residue numbers refer to the chain shown, from its start. Names and notes keep the numbering of the source. Ends that are not written are not given here.
# T1: ErbB-4 receptor-Ig fusion (human, UniProt Q15303 26-651)
# T1 construct: extracellular domain;range 224-C-terminus; also called ErbB-4-Ig; not shown: human IgG heavy chain constant region from His224 (hinge) on
# T1 sequence: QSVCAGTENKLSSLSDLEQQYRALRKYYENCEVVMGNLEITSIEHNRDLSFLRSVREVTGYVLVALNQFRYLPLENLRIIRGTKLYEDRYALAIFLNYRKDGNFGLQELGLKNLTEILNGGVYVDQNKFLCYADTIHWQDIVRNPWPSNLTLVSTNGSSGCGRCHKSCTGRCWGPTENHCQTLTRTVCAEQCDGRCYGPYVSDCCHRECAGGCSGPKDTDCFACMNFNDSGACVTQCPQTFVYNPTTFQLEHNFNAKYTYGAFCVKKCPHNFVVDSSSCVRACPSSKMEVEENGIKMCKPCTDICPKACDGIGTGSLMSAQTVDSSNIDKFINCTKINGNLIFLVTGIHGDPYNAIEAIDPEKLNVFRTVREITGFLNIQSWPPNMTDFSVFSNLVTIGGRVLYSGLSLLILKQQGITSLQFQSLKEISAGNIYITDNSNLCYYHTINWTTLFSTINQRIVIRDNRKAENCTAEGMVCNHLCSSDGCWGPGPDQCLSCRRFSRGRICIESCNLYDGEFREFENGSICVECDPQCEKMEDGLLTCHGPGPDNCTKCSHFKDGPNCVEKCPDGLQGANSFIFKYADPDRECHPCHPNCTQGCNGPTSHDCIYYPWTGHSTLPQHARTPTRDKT
# B1: soluble wild-type HRG-β1 EGF (HRG8, HRG-β1 177-228) (ligand)
# chain: SHLVKCAEKEKTFCVNGGECFMVKDLSNPSRYLCKCPNEFTGDRCQNYVMAS
# notes: also called HRG8 (WT)
# B2: soluble HRG-β1 EGF variant A3 (ligand)
# chain: B1 chain with S1W, H2E, K5P
# modifications: also: three disulfide bonds, pairing not given here
# B3: soluble HRG-β1 EGF variant F1 (ligand)
# chain: B1 chain with M22K, M50I
# modifications: also: three disulfide bonds, pairing not given here
# B4: HRG2: HRG-β1 177-244 displayed on phage, fused to pIII 247 (ligand, phage M13)
# chain: SHLVKCAEKEKTFCVNGGECFMVKDLSNPSRYLCKCPNEFTGDRCQNYVMASFYKHLGIEFMEAEELYGGSGGGSGSGDFDYEKMANANKGAMTENADENALQSDAKGKLDSVATDYGAAIDGFIGDVSGLANGNGATGDFAGSNSQMAQVGDGDNSPLMNNFRQYLPSLPQSVECRPFVFSAGKPYEFSIDCDKINLFRGVFAFLLYVATFMYVFSTFANILRNKES
# notes: range 247-C-terminus; Monovalent phage display; also called pHRG2-g3
# B5: HRG8: wild-type HRG-β1 EGF (HRG-β1 177-228) displayed on phage, linker to pIII 323 (ligand, phage M13)
# chain: SHLVKCAEKEKTFCVNGGECFMVKDLSNPSRYLCKCPNEFTGDRCQNYVMASGGGSGGGSGGGSNSQMAQVGDGDNSPLMNNFRQYLPSLPQSVECRPFVFSAGKPYEFSIDCDKINLFRGVFAFLLYVATFMYVFSTFANILRNKES
# notes: range 323-C-terminus; Monovalent phage display; also called pHRG8-g3; wild-type HRG-β1 EGF phage
# B6: HRG11: HRG-β1 177-230 displayed on phage, GGGSGGG linker to pIII 247 (ligand, phage M13)
# chain: SHLVKCAEKEKTFCVNGGECFMVKDLSNPSRYLCKCPNEFTGDRCQNYVMASFYGGGSGGGGGSGGGSGSGDFDYEKMANANKGAMTENADENALQSDAKGKLDSVATDYGAAIDGFIGDVSGLANGNGATGDFAGSNSQMAQVGDGDNSPLMNNFRQYLPSLPQSVECRPFVFSAGKPYEFSIDCDKINLFRGVFAFLLYVATFMYVFSTFANILRNKES
# notes: range 247-C-terminus; Monovalent phage display; also called pHRG11-g3
# Columns and labels:
# [1] = biological target: T2, ErbB-3 receptor-Ig fusion (human, UniProt P21860 20-643); test: phage ELISA; ratio to wild-type HRG-β1 177-244 phage
# T2 construct: extracellular domain;range 224-C-terminus; also called ErbB-3-Ig; 3/3 homodimer; not shown: human IgG heavy chain constant region from His224 (hinge) on
# [2] = biological target: T1, ErbB-4 receptor-Ig fusion; test: as above
# [3] = biological target: T1, ErbB-4 receptor-Ig fusion; test: phage ELISA; soluble ErbB-4-Ig as competitor
# [4] = biological target: T2, ErbB-3 receptor-Ig fusion; test: phage ELISA; soluble ErbB-3-Ig as competitor
# [5] = biological target: T2, ErbB-3 receptor-Ig fusion; test: displacement of 125I-HRG from plate-bound ErbB-3-Ig
# [6] = biological target: T1, ErbB-4 receptor-Ig fusion; test: displacement of 125I-HRG from plate-bound ErbB-4-Ig
# Source text: For the ErbB-4 binding assays, PBS containing 1% BSA was used as the blocking and binding buffers, and the wash buffer was PBS containing 0.05% Tween 20™.
# [7] = biological target: ErbB-2/3 heterodimers on MCF7 breast cancer carcinoma cells (UniProt P04626 23-1255; P21860 20-1342, limits assumed); test: cell-based or functional assay
# [8] = biological target: T3, ErbB-2/3 receptor-Ig fusion (human, UniProt P04626 23-652; P21860 20-643); test: displacement of 125I-HRG from plate-bound ErbB-2/3-Ig
# T3 construct: extracellular domain;range 224-C-terminus; Co-expressed in HEK-293; also called ErbB-2/3-Ig; 2/3-heterodimer; not shown: human IgG heavy chain constant region from His224 (hinge) on
# [9] = biological target: T3, ErbB-2/3 receptor-Ig fusion; test: told with the 125I-HRG displacement assay; reference ErbB-3-Ig homodimer
# [10] = biological target: T3, ErbB-2/3 receptor-Ig fusion; test: phage ELISA; soluble ErbB-2/3-Ig competes phage off plate-bound ErbB-2/3-Ig
# Procedure: (§1) Microtiter plates (Nunc Maxisorp™ 96-well plates, Inter Med, Denmark) for phage ELISA were prepared as follows. The wells were precoated overnight with 0.5 μg of rabbit anti-human IgG (Fc gamma fragment-specific) antibodies (Jackson Immunoresearch, West Grove, Pa.) in 100 μL 50 mM NaCO₃ (pH 9.6). The wells were blocked for 30 minutes (min) with 200 μL PBS containing 0.1% bovine serum albumin (BSA) and rinsed with wash buffer (PBS containing 0.05% Tween 20™). The wells were then coated with 0.1 μg ErbB-2/3-Ig in binding buffer (PBS, 0.1% BSA, 0.05% Tween 20™) for 1 h, and washed again.
# (§2) Serial dilutions of soluble ErbB-2/3-Ig (competitor) and a concentration of phage predetermined to give 60% saturation (without competitor) were added to the wells in 100 μL binding buffer. Following incubation for 2 h at room temperature, plates were washed extensively and treated with a 1:900 dilution of anti-M13 horseradish peroxidase conjugate (Pharmacia, Piscataway, N.J.) for 20 min. The amount of phage binding was determined by assaying horseradish peroxidase activity using o-phenylenediamine dihydrochloride) substrate solution (Sigma Chemical Company, St. Louis, Mo.). EC₅₀ values were calculated as the concentration of soluble ErbB-2/3-Ig required to compete half of the phage off the plate.
# [11] = biological target: T1, ErbB-4 receptor-Ig fusion; test: phage ELISA; soluble ErbB-4-Ig as competitor; remark: listed apart in the source
# Procedure: as §1, §2
# [12] = biological target: T2, ErbB-3 receptor-Ig fusion; test: phage ELISA; soluble ErbB-3-Ig as competitor; remark: listed apart in the source
# Procedure: as §1, §2
# [13] = biological target: T1, ErbB-4 receptor-Ig fusion; test: phage ELISA; soluble ErbB-4-Ig as competitor; remark: listed apart in the source
# Procedure: as §1
# (§3) Serial dilutions of soluble ErbB-2/3-Ig (competitor) and a concentration of phage predetermined to give 60% saturation (without competitor) were added to the wells in 100 μL binding buffer. Following incubation for 2 h at room temperature, plates were washed extensively and treated with a 1:900 dilution of anti-M13 horseradish peroxidase conjugate (Pharmacia, Piscataway, N.J.) for 20 min. The amount of phage binding was determined by assaying horseradish peroxidase activity using o-phenylenediamine dihydrochloride) substrate solution (Sigma Chemical Company, St. Louis, Mo.). EC₅₀ values were calculated as the concentration of soluble ErbB-2/3-Ig required to compete half of the phage off the plate. […]
# [14] = biological target: T2, ErbB-3 receptor-Ig fusion; test: phage ELISA; soluble ErbB-3-Ig as competitor; remark: listed apart in the source
# Procedure: as §1, §3
# T2 sequence (P21860 other isoform, or with tags, fused parts or gaps): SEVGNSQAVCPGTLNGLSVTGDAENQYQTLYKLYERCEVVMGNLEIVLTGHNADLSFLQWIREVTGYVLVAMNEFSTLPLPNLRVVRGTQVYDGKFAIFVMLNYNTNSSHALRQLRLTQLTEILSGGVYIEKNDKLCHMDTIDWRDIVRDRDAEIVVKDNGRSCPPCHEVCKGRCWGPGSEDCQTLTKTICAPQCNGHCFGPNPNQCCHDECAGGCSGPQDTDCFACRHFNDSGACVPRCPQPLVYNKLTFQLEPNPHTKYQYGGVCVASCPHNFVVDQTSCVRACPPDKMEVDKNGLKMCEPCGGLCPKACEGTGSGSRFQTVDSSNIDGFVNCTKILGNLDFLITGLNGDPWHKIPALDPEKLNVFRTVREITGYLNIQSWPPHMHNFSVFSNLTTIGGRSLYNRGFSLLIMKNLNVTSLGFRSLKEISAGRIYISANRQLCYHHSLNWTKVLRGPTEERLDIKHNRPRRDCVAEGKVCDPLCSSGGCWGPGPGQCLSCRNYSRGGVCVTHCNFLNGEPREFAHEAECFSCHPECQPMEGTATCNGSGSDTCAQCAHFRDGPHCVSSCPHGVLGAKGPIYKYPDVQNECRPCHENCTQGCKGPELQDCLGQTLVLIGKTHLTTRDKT
molecule,measurement,setting,value
"HRG-β1 177-244 H178W with 228-231 replaced by Met, on phage (from UniProt P69168 265-424) (ligand)",EC50 Mut/WT,[1],1.2
same,EC50 Mut/WT,[2],1.7
HRG-β1 177-244 F189A on phage (from UniProt P69168 265-424) (ligand),EC50,[3],106 nM
same,EC50,[4],892 nM
"HRG-β1 177-244 H178L with 228-231 replaced by Met, on phage (from UniProt P69168 265-424) (ligand)",EC50 Mut/WT,[1],6.4
same,EC50 Mut/WT,[2],1.7
HRG-β1 177-244 F216A on phage (from UniProt P69168 265-424) (ligand),EC50,[4],500 nM
B1,EC50,[5],2.3 nM
same,EC50,[6],1.5 nM
same,KIRA EC50 (nM): tyrosine phosphorylation of the ErbB-2 receptor on MCF7 cells,[7],0.212 nM
same,EC50,[8],0.033 nM
same,fold higher affinity than for the 3/3 homodimer,[9],~100 fold
B2,EC50,[5],4.3 nM
same,EC50,[6],2.1 nM
B3,EC50,[5],0.6 nM
same,EC50,[6],0.26 nM
B4,EC50,[10],6 nM
same,EC50,[11],19 nM
same,EC50,[12],13 nM
B5,EC50,[10],11 nM
same,EC50,[13],163 nM
same,EC50,[14],135 nM
"SHLVKCAEKEKTFCVNGGECFMVKDYGYLMCKCPNEFTGDRCQNYVMAS (ligand, also: three disulfide bonds, pairing not given here) [soluble HRG-β1 EGF variant E2]",EC50,[6],2.4 nM
"SHLVKCAEKEKTFCVNGGECYRVKTYGYLMCKCPNEFTGDRCQNYVIAS (ligand, also: three disulfide bonds, pairing not given here, also called D4+E2+M50I) [soluble HRG-β1 EGF combination variant HRG58]",EC50,[6],0.3 nM
"SHLVKCGEEREGFCVNGGECYRVKTYGYLMCKCPNEFTGDRCQHYVIAS (ligand, also: three disulfide bonds, pairing not given here, also called B3+D4+E2+I2) [soluble HRG-β1 EGF combination variant HRG73]",EC50,[6],0.31 nM
B6,EC50,[10],19 nM

# Source: patent publication US20060183194A1 (Genentech, published 2006)
